Publication doi:10.1101/2021.06.30.450611
Substitutions are numbered along the chain they refer to. In names and notes the source's numbering stands.

B1: full-length recombinant human KIF1C-GFP (wildtype) (natural protein)
chain: MAGASVKVAVRVRPFNARETSQDAKCVVSMQGNTTSIINPKQSKDAPKSFTFDYSYWSHTSTEDPQFASQQQVYRDIGEEMLLHAFEGYNVCIFAYGQTGAGKSYTMMGRQEPGQQGIVPQLCEDLFSRVSENQSAQLSYSVEVSYMEIYCERVRDLLNPKSRGSLRVREHPILGPYVQDLSKLAVTSYADIADLMDCGNKARTVAATNMNETSSRSHAVFTIVFTQRCHDQLTGLDSEKVSKISLVDLAGSERADSSGARGMRLKEGANINKSLTTLGKVISALADMQSKKRKSDFIPYRDSVLTWLLKENLGGNSRTAMIAALSPADINYEETLSTLRYADRTKQIRCNAIINEDPNARLIRELQEEVARLRELLMAQGLSASALEGLKTEEGSVRGALPAVSSPPAPVSPSSPTTHNGELEPSFSPNTESQIGPEEAMERLQETEKIIAELNETWEEKLRKTEALRMEREALLAEMGVAVREDGGTVGVFSPKKTPHLVNLNEDPLMSECLLYHIKDGVTRVGQVDMDIKLTGQFIREQHCLFRSIPQPDGEVVVTLEPCEGAETYVNGKLVTEPLVLKSGNRIVMGKNHVFRFNHPEQARLERERGVPPPPGPPSEPVDWNFAQKELLEQQGIDIKLEMEKRLQDLENQYRKEKEEADLLLEQQRLYADSDSGDDSDKRSCEESWRLISSLREQLPPTTVQTIVKRCGLPSSGKRRAPRRVYQIPQRRRLQGKDPRWATMADLKMQAVKEICYEVALADFRHGRAEIEALAALKMRELCRTYGKPDGPGDAWRAVARDVWDTVGEEEGGGAGSGGGSEEGARGAEVEDLRAHIDKLTGILQEVKLQNSSKDRELQALRDRMLRMERVIPLAQDHEDENEEGGEVPWAPPEGSEAAEEAAPSDRMPSARPPSPPLSSWERVSRLMEEDPAFRRGRLRWLKQEQLRLQGLQGSGGRGGGLRRPPARFVPPHDCKLRFPFKSNPQHRESWPGMGSGEAPTPLQPPEEVTPHPATPARRPPSPRRSHHPRRNSLDGGGRSRGAGSAQPEPQHFQPKKHNSYPQPPQPYPAQRPPGPRYPPYTTPPRMRRQRSAPDLKESGAAV
B2: full-length recombinant human KIF1C(P176L)-GFP (natural protein)
chain: B1 chain with P176L
B3: full-length recombinant human KIF1C(R169W)-GFP (natural protein)
chain: B1 chain with R169W

Biological target: Taxol-stabilised microtubules assembled from pig tubulin (single molecule motility assay) (pig)
Assay: single molecule TIRF motility assay

dwell time [s] | Binder
36.3 | B1
25.8 | B2
16 | B3
